This note sets out measurements from publication PMC6737378, “Molecular Basis for ATP-Hydrolysis-Driven DNA Translocation by the CMG Helicase of the Eukaryotic Replisome” (Cell Reports, 2019).

B1: Saccharomyces cerevisiae Ctf4 trimer (natural protein, S. cerevisiae, UniProt Q01454 1-927, looked up)
chain: MVSVIDKLVFDFGGKTLVSLAPDNNTLCVANKNGLTKILKTNNPEEEPETLDSSKLVSSIKCYSNSHFLMTTMQGDALRYNIDSSQEELLARFALPLRDCCVIHSGKMAVFGGDDLELILLELDDETHKKHAIKIDEQVSQISYNSQMNILAVSMINGKVQIFSLTSTIPNKVHELNDYIVANSYDDTHRDKILSNMMDDIDKDNDNDLSETADPDENNVADPEFCAANRICTRVAWHPKGLHFALPCADDTVKIFSIKGYSLQKTLSTNLSSTKAHFIDLQFDPLRGTYIAAVDLNNKLTVWNWETSEIHYTREFKRKITNIAWKIQADSKTLDLVLGTWSGSIAIVQNLAESVVSNIPDQSVAESSTKHGLFVDSESDLENLEGNDDINKSDKLFSDITQEANAEDVFTQTHDGPSGLSEKRKYNFEDEEDFIDDDDGAGYISGKKPHNEHSYSRVHKTHSFPISLANTGKFRYMPFSPAGTPFGFTDRRYLTMNEVGYVSTVKNSEQYSITVSFFDVGRFREYHFEDLFGYDLCFLNEKGTLFGQSKTGQIQYRPHDSIHSNWTKIIPLQAGERITSVAATPVRVIVGTSLGYFRSFNQFGVPFAVEKTSPIVALTAQNYRVFSVHYSQFHGLSYSLSELGTSSKRYYKRECPLPMSLPNINSDMKKDANLDYYNFNPMGIKSLFFSSYGDPCIFGSDNTLLLLSKWRSPEESKWLPILDSNMEIWKMSGGKETTDIHVWPLALAYDTLNCILVKGKHIWPEFPLPLPSEMEIRMPVFVKSKLLEENKAILNKKNEIGADTEAEEGEEDKEIQIPVSMAAEEEYLRSKVLSELLTDTLENDGEMYGNENEVLAALNGAYDKALLRLFASACSDQNVEKALSLAHELKQDRALTAAVKISERAELPSLVKKINNIREARYEQQLK
notes: Ctf4, S. cerevisiae, expression plasmids of Gambus et al., 2009; Called a trimer in the methods; Construct in Gambus et al., 2009; also called ScCtf4; source: E. coli BL21 (DE3), purified (Ni-NTA, MonoQ, Superdex 200)
B2: Saccharomyces cerevisiae Csm3-Tof1 complex (complex, S. cerevisiae)
chain 1: MDQDFDSLLLGFNDSDSVQKDPTVPNGLDGSVVDPTIADPTAITARKRRPQVKLTAEKLLSDKGLPYVLKNAHKRIRISSKKNSYDNLSNIIQFYQLWAHELFPKAKFKDFMKICQTVGKTDPVLREYRVSLFRDEMGMSFDVGTRETGQDLERQSPMVEEHVTSAEERPIVADSFAQDKRNVNNVDYDNDEDDDIYHLSYRNRRGRVLDERGNNETVLNNVVPPKEDLDALLKTFRVQGPVGLEENEKKLLLGWLDAHRKMEKGSMTEEDVQLIQSLEEWEMNDIEGQHTHYDLLPGGDEFGVDQDELDAMKEMGF
chain 2: MSADLQQGTTNAADFSLTVLRARIALLATAIGGPDYTSQIDPPPYKLGDDCLACLKDLKRWFKLVDDQQKRWDVAMAVAEYRILTDDLLPILIDWENKCSLAAKLAKNNPDHEEFRNKAYYDKIALNCLQLLVLMTWPLIVTEQSSSNQITLYGELKKHQLVYKKTILSMESGKVLRAAIRLALDVIKIDRLSRTPRDNMVLKLVLNFFRNVIAIEPGEFTINTKKSMPKKGITSIDTLPPNVSMDDISLNTVISSFHKNKVFGFLLTLTSSLSKEFDQDFINIPLLEIMFYFTKDVNQELLFPRQFETGTHSKVVNKNESSSANNIVTSAGFELSKLLQKEHQMRKNVIKHTSARHSRFGGLLSIQTPDKTRLTVSGSQALVDEKIALQKLDDSKKWNKRIIKKHQSVAAEGLPNSLLNSQTGKAIFFTESNGKHFKEFINNFIDSGFNILLHSVTNYFTTEQDRMVTLEQVEYLLFFAWFVKYQLLRSKIDNSADIKQVSEALKEVTFILVSSLLRSAYDLKNWTVTHAGMIAFNELLNLVSRTKAAQEEDSTDIEFIVSRLFSDERIQLLSNLPKIGSKYSLQFMKSCIELTHSVLKVLEQYSDDKTLVIEGKSRRQKKFNISEGDITKLIEEENVDRDEALDILTSSLRSIEVNFQKVQANYMTEPVIETYINFLERFRELEDDSIKKVFSFFHRVFVQAKEQALLFRFDLIILLREMLSPDGLDRMSRSRKYVSQFSDYFLARLKKRLKKSPAWFVGLLFPPLHNSEVGFYQRYGEYNVLNNESMYAAPASQFKPIPDEEALPPSILLDMKYGVLVSTLLDDGKTELLDQLLKHITHTLDIFKSWLTVNVNAGKETVNPPNEYFTLTGVLNNDPIFKDKDYRALLLLIGYSIPRKINEPCFLPGTVEVSDLTVSCELVKKYLSTPFETPNGLPSSSYLLRVRSEKDSFSHNEQDGWEGDDDYDYNDPYIVPDDQILSKSDAAYFKDLDNNASDKLKGTKFSKGIARSKKKDKRKRRKGEAKTNLPMFGDQDDERPQTVRERHGVFSKEFISDSEDDEDLMNPIFFENETYMRWLLDKNNGQLTEDRYIQFAKFAAERMNNGGVVTGDYTSLFGGSIPSIESIRATESSSFAPDKSLISLASHVASEMSIFDVNNNNNNQLSDDDVNSESRNSLGSSQPSNSQNMFQSEVYSRKESTKRSLEASAADESDEDEEAIRLFGKKSRVVLSQGDSDD
notes: Csm3, S. cerevisiae, from strain yAE48 (Yeeles et al., 2017); Tof1, S. cerevisiae, from strain yAE48 (Yeeles et al., 2017); Construct in Yeeles et al., 2017; also called ScCsm3/Tof1
B3: Saccharomyces cerevisiae Mrc1 (natural protein, S. cerevisiae, UniProt P25588 1-1096, looked up)
chain: MDDALHALSSLTAKKRTTTYKKVAVPILDENDNTNGNGPNDIDNPPELTGNGFLFANATLNRVKNRLEGKKAPEQNHNNGKDRSENSLPTQLISNLYDGGEELEKSEVKDNSYSEKNVSSSFTQTQRIPVSIQQDKVFNVPIHSVNDGKPTQLIKEDGLVNETSQALKTPLTTGRPGATQRIDSSGATSQTQPIKSIEPQSQIITTSSNHSNALSPKIPIIPTELIGTSPLFQSIQNRGPDTQMDVPPQTAHDEDKTQAIGIPQATHQEQKTQIDTVAQTLQDEVPHTLKIREIQSELASEDSKREKARNVEYKKPQKPIPTKKFFSKESFLADFDDSSSNEDDDIKLENAHPKPVQNDDELHENKSVELNLTDETRINEKRVPLLSSYANNLKREIDSSKCITLDLDSDSDEYGDDDMDSIKLSKDESVLPISQLSKATILNLKARLSKQNQKLSQRPNKSKDPKVDHNVLLNTLRKASRKQILDHQKEVIETKGLKLEDMAKEKEIVENLLEQEILRNKRIRQKEKRREKLEENDFQLNAHDSGSDSGSESSGFALSGNEIADYESSGSENDNRRESDSEKEDDEIILKQKKSHHVKHIINESDSDTEVEAKPKEKADESLPKRIAINLGHYGDNIGEDTDKFQETNVLDTQNIEEVMAERNTIENEVKDDVYVNEEADEAIRRQLIDKEKLQLKQKEKEHEAKIKELKKRGVTNFFEMEAEESEDEWHGIGGADGEGSDDYDSDLEKMIDDYSKNNFNPHEIREMLAAENKEMDIKMINKILYDIKNGGFRNKRAKNSLELELSDDDEDDVLQQYRLKRRELMRKRRLEIGDDAKLVKNPKSSAFFESMVEDIIEYKNPFGAEEEYNLDITSTATDLDTQDNSINVGDNTGNNEQKPVDQKNKKVIISEDFVQKSLSFLKSNNYEDFETDKELSRIQHGNDEAIEDLYTLKQNSSIKSFTNSQTDSTTSKTVNTIIDLEKRPEDEDEVENGDTSLVGVFKHPSIIKSFASRTDINDKFKEGNKTVKILKSYKTVGSSKASITYMGKTRKLIAPKRKTEGSHRYHHDHHNKKMKMKTKTKSNKLFESGQDSFDN
notes: Mrc1, S. cerevisiae, from strain yJY32 (Yeeles et al., 2017); Construct in Yeeles et al., 2017; also called ScMrc1; FLAG-Mrc1; source: S. cerevisiae strain yJY32, purified (anti-FLAG M2 agarose, MonoQ)

Assay [1] relates to T1, Drosophila CMG (Cdc45-MCM-GINS helicase; DmCMG).
T1 construct: gene Mcm2; with Cell division control protein 45; DNA replication complex GINS protein PSF1; DNA replication complex GINS protein PSF2; DNA replication complex GINS protein PSF3; DNA replication complex GINS protein SLD5
Kind of assay: cryo-EM structure. Format: binding, Drosophila melanogaster. To be noted: DNA fork bound, 5 mM ATP elution buffer, 2 mM Mg(OAc)2, pH 7.6; bipartite MCM inter-protomer ATPase sites; states 1A, 1B, 2A, 2B at 3.70-4.46 Å; ADP at loosened interfaces, arising during ATP turnover. The text has this:
cryo-EM structure on Drosophila CMG (Cdc45-MCM-GINS helicase; DmCMG) | ATP at inter-protomer interfaces is shown in red.

Assay [2] has as its target T2, Saccharomyces cerevisiae CMG helicase (Cdc45-MCM-GINS) (S. cerevisiae, UniProt P29469 1-868; P24279 1-971; P30665 1-933; P29496 1-775; P53091 1-1017; P38132 …).
T2 construct: Mcm2, S. cerevisiae, subunit of the CMG from strain yJCZ3 (Zhou et al., 2017); Mcm3, S. cerevisiae, subunit of the CMG from strain yJCZ3; Mcm4, S. cerevisiae, subunit of the CMG from strain yJCZ3; Mcm5, S. cerevisiae, subunit of the CMG from strain yJCZ3; Mcm6, S. cerevisiae, subunit of the CMG from strain yJCZ3; Mcm7, S. cerevisiae, subunit of the CMG from strain yJCZ3; Cdc45, S. cerevisiae, …
Kind of assay: pull-down + other: negative-stain EM; 250 nM CMG held on Calmodulin Affinity Resin, 500 nM Ctf4 added, 1 mM ATPγS, 30°C; eluted with EDTA/EGTA, cross-linked with 0.01% glutaraldehyde and imaged. The conditions noted are these: both partners purified.

For assay [3], the target named is T2, Saccharomyces cerevisiae CMG helicase …. Put plainly: DNA fork-affinity purification with silver-stained gel and negative-stain EM 2D averaging; desthiobiotin DNA fork on streptavidin magnetic beads; 250 nM CMG mixed with 350 nM Mrc1 + Csm3-Tof1, 2 mM ATPγS, then 80 nM Polε; Protein Binding Buffer, 30°C; eluted with biotin; dropouts without Mrc1 or Csm3-Tof1; parallel experiment without Polε on an M.HpaII-labeled fork. To be noted: both partners purified.

The target in assay [4] is B2. Kind of assay: DNA-affinity purification; desthiobiotin fork or blunt duplex DNA on streptavidin magnetic beads; 350 nM Mrc1, 350 nM Csm3-Tof1 or 350 nM MCT pre-incubated on ice; Protein Binding Buffer, 30°C; eluted with biotin. The conditions noted are these: both partners purified.

On to `Nc1ncnc2c1ncn2[C@@H]1O[C@H](COP(=O)(O)OP(=O)(O)O)[C@@H](O)[C@H]1O` [ADP], for which, in assay [1], the cryo-EM structure entry is given as “The C-terminal subunit in the spiral is ADP bound as are the non-engaged seam subunits”. For B1, in assay [2], the binding result was “binds”. Consider B2, for which the binding result in assay [3] is given as “binds”. Take B3: the binding result in assay [4] and in assay [3] was “binds” throughout.
